# Values quoted from earlier work as cited in paper PMC6189303.
# Molecular target: L1-CAM (UniProt P32004)
# Chain of UniProt P32004 (P32004 20-1120): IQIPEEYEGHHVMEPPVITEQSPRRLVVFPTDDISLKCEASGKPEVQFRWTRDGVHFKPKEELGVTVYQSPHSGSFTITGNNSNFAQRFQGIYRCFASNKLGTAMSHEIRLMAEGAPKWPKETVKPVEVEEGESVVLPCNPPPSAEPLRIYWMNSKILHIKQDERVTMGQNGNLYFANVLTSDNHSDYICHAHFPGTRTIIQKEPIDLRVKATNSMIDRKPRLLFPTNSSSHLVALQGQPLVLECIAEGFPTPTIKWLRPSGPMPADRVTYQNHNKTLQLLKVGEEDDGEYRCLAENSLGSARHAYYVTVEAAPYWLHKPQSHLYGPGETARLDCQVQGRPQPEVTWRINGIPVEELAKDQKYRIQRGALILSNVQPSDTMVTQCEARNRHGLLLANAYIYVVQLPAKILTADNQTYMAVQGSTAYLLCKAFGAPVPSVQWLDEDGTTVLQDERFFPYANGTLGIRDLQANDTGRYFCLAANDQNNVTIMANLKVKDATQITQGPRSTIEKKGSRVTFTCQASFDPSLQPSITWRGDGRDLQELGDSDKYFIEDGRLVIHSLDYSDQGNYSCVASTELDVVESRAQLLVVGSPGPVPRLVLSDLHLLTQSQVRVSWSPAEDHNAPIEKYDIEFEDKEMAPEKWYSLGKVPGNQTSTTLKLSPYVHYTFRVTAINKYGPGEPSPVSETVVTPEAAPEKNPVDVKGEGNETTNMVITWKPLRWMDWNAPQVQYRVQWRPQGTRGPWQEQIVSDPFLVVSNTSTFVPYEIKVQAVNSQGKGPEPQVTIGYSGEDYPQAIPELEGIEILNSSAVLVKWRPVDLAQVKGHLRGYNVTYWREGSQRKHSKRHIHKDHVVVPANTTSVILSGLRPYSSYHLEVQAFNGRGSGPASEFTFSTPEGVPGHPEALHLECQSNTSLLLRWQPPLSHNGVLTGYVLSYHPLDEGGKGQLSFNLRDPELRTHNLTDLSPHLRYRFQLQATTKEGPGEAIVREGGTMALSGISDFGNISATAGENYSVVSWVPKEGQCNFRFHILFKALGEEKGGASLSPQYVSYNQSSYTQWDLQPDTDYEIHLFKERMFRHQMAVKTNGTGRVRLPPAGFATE
substance,measurement,value
Neurocan (from UniProt O14594),Kd,1 nM
